From paper PMC12533375, “Critical Role of IL1R2‐ENO1 Interaction in Inhibiting Glycolysis‐Mediated Pyroptosis for Protection Against Lethal Sepsis” (Advanced Science, 2025)

Biological target: T1, recombinant mouse ENO1 (rmENO1) (mouse, UniProt P17182 1-434)
T1 construct: recombinant mouse ENO1, Creative BioMart Cat. No. Eno1-244 M; The vendor's data sheet should be consulted; source: bought: Creative BioMart (Cat. No. Eno1-244 M)
Assay: SPR; OpenSPR (Nicoya); rmIL1R2 immobilised on a carboxyl sensor (EDC/NHS), rmENO1 as analyte at 12.5 to 50 nM; 40 µL/min, 20 °C; 50 mM Tris-HCl, 150 mM NaCl, 3 mM EDTA, 0.05% P20, 0.5 mM CaCl2, pH 7.4; global 1:1 fit
Details: both partners purified

T1 sequence (P17182 whole entry): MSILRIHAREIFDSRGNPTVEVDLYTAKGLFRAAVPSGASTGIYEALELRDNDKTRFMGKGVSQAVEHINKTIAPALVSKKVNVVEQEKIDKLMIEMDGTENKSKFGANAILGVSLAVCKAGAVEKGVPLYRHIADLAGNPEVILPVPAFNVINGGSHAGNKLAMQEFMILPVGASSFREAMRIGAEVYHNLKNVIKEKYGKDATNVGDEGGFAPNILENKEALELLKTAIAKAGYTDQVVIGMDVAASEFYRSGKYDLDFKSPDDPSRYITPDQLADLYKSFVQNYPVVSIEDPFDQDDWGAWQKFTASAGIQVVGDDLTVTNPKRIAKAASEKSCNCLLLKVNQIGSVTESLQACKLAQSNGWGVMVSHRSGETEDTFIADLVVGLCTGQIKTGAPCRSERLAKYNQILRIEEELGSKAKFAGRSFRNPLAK

B1: recombinant mouse IL1R2 (rmIL1R2) (receptor, UniProt P27931 14-355, looked up)
chain: FTTPTVVHTGKVSESPITSEKPTVHGDNCQFRGREFKSELRLEGEPVVLRCPLAPHSDISSSSHSFLTWSKLDSSQLIPRDEPRMWVKGNILWILPAVQQDSGTYICTFRNASHCEQMSVELKVFKNTEASLPHVSYLQISALSTTGLLVCPDLKEFISSNADGKIQWYKGAILLDKGNKEFLSAGDPTRLLISNTSMDDAGYYRCVMTFTYNGQEYNITRNIELRVKGTTTEPIPVIISPLETIPASLGSRLIVPCKVFLGTGTSSNTIVWWLANSTFISAAYPRGRVTEGLHHQYSENDENYVEVSLIFDPVTREDLHTDFKCVASNPRSSQSLHTTVKE
notes: recombinant mouse IL1R2, R&D Systems Cat. No. 563-MR-100; The vendor's data sheet should be consulted; source: bought: R&D Systems (Cat. No. 563-MR-100)
- Kd: 1.99 nM
